Experimental data as given in article PMC3406025, “Structure and Binding Interface of the Cytosolic Tails of αXβ2 Integrin” (PLoS ONE, 2012).

B1: cytosolic tail (CT) of integrin β2 (residues K724-S769) (domain or fragment, UniProt P05107 724-769, looked up)
chain: KALIHLSDLREYRRFEKEKLKSQWNNDNPLFKSATTTVMNPKFAES
notes: integrin β2 (CD18) cytosolic tail, residues K724-S769; Used 15N-labelled in one direction of the titration and unlabelled in the other; also called β2 CT; CT of β2; source: E. coli BL21DE3, KSI fusion in inclusion bodies, purified (Ni-NTA in 8 M urea, cyanogen bromide cleavage, HPLC); not shown: ketosteroid isomerase (KSI), N-terminal, cleaved
B2: cytosolic tail (CT) of integrin αX (residues K1129-K1163) (domain or fragment, UniProt P20702 1129-1163, looked up)
chain: KVGFFKRQYKEMMEEANGQIAPENGTQTPSPPSEK
notes: integrin αX (CD11c) cytosolic tail, residues K1129-K1163, 35 residues; Used 15N-labelled in one direction of the titration and unlabelled in the other; A GGGGSDP linker lay between KSI and the tail, and formic acid cleaves at the Asp-Pro site, so a Pro may remain at the N-terminus (surmised); The myristoylated synthetic αX CT (GL Biochem) was used only for the structure in DPC micelles, not for …

Experiments:
[1] = molecular target: B2; assay: NMR titration; 15N-1H HSQC; 15N-labelled CT titrated with the unlabelled cognate CT up to two times its concentration (1:2); 10 mM sodium phosphate buffer, pH 6.5, aqueous solution; done in both directions; settings: both partners purified
[2] = molecular target: B1; assay: as above; settings: both partners purified

binding result [1]	binding result [2]	Binder
binds		B1
	binds	B2
